From paper doi:10.1101/2020.04.23.053322 come the findings set out here.

Read-outs that look alike come from different tables or passages of the source.

Test [1] has as its target ATF6-CFP (human ATF6 fused to mCerulean on the C-terminal side) (human) (UniProt P18850). The experiment in a line: FRET or BRET. Background: BRET reads energy transfer from a luciferase to a nearby fluorophore.
The target is the same in test [2]. The experiment in a line: FRET or BRET. This is another data set of the same source.

Sequence of UniProt P18850 (P18850 whole entry, the tested form may be a part): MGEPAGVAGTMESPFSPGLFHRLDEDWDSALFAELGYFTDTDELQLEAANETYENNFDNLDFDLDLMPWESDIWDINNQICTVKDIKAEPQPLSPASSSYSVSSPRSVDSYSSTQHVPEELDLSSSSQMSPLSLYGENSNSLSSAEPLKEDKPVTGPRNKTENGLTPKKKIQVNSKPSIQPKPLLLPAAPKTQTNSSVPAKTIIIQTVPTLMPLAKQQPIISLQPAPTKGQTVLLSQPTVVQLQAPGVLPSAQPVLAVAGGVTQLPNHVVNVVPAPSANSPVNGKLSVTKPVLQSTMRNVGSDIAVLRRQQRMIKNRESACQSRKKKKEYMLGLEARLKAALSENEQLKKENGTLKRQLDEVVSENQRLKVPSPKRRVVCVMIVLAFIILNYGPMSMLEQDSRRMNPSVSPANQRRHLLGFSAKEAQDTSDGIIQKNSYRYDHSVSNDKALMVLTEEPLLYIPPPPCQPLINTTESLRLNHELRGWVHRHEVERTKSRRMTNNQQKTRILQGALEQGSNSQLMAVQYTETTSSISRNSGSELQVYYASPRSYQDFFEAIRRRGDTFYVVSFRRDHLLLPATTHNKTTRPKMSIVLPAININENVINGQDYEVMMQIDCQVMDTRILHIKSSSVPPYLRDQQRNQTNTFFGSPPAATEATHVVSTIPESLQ

As to “mVenus-tagged sorcin (YFP-SRI) (from UniProt P30626 1-198) (natural protein)”, the results for the FRET efficiency in test [1] and in test [2] were 11.7% and 11.4%, respectively.
